Reference: patent US20140087995A1 (published 2014)
Numbered stars: 1 amine (or outer) side, 2 acyl side, 3 side chain; on linkers, the order of the positions; unused ones are H or OH. Bridge positions count the residues as written; N and C are the ends. Side chains are listed from the residue outwards. Ends that are not written are not given here. * marks the point of attachment. C20 diacid = O=C(O)CCCCCCCCCCCCCCCCCCC(=O)*; γGlu = O=C(O)[C@H](CCC(=O)[*:2])N[*:1]

B1: N^ε1-[(4S)-4-carboxy-4-(19-carboxynonadecanoylamino)butanoyl]-[Glu14,Arg17,Pro21,Pro27,Pro34,Glu35]-h-amylin (peptide)
peptide: K([γGlu-C20 diacid])CNTATCATQRLAEFLRHSSPNFGAIPSSTNVGPETY-NH2
modifications: disulfide 2-7; N-terminus assumed
SMILES: CC[C@H](C)[C@H](NC(=O)[C@H](C)NC(=O)CNC(=O)[C@H](Cc1ccccc1)NC(=O)[C@H](CC(N)=O)NC(=O)[C@@H]1CCCN1C(=O)[C@H](CO)NC(=O)[C@H](CO)NC(=O)[C@H](Cc1c[nH]cn1)NC(=O)[C@H](CCCNC(=N)N)NC(=O)[C@H](CC(C)C)NC(=O)[C@H](Cc1ccccc1)NC(=O)[C@H](CCC(=O)O)NC(=O)[C@H](C)NC(=O)[C@H](CC(C)C)NC(=O)[C@H](CCCNC(=N)N)NC(=O)[C@H](CCC(N)=O)NC(=O)[C@@H](NC(=O)[C@H](C)NC(=O)[C@@H]1CSSC[C@H](NC(=O)[C@@H](N)CCCCNC(=O)CC[C@H](NC(=O)CCCCCCCCCCCCCCCCCCC(=O)O)C(=O)O)C(=O)N[C@@H](CC(N)=O)C(=O)N[C@@H]([C@@H](C)O)C(=O)N[C@@H](C)C(=O)N[C@@H]([C@@H](C)O)C(=O)N1)[C@@H](C)O)C(=O)N1CCC[C@H]1C(=O)N[C@@H](CO)C(=O)N[C@@H](CO)C(=O)N[C@H](C(=O)N[C@@H](CC(N)=O)C(=O)N[C@H](C(=O)NCC(=O)N1CCC[C@H]1C(=O)N[C@@H](CCC(=O)O)C(=O)N[C@H](C(=O)N[C@@H](Cc1ccc(O)cc1)C(N)=O)[C@@H](C)O)C(C)C)[C@@H](C)O
B2: N^ε1-[(4S)-4-carboxy-4-[[(4S)-4-carboxy-4-(19-carboxynonadecanoylamino)butanoyl]amino]butanoyl]-[Glu14,Arg17,Pro21,Pro27,Arg34,Glu35]-h-amylin (peptide)
peptide: K([γGlu-γGlu-C20 diacid])CNTATCATQRLAEFLRHSSPNFGAIPSSTNVGRETY-NH2
modifications: disulfide 2-7; N-terminus assumed
SMILES: CC[C@H](C)[C@H](NC(=O)[C@H](C)NC(=O)CNC(=O)[C@H](Cc1ccccc1)NC(=O)[C@H](CC(N)=O)NC(=O)[C@@H]1CCCN1C(=O)[C@H](CO)NC(=O)[C@H](CO)NC(=O)[C@H](Cc1c[nH]cn1)NC(=O)[C@H](CCCNC(=N)N)NC(=O)[C@H](CC(C)C)NC(=O)[C@H](Cc1ccccc1)NC(=O)[C@H](CCC(=O)O)NC(=O)[C@H](C)NC(=O)[C@H](CC(C)C)NC(=O)[C@H](CCCNC(=N)N)NC(=O)[C@H](CCC(N)=O)NC(=O)[C@@H](NC(=O)[C@H](C)NC(=O)[C@@H]1CSSC[C@H](NC(=O)[C@@H](N)CCCCNC(=O)CC[C@H](NC(=O)CC[C@H](NC(=O)CCCCCCCCCCCCCCCCCCC(=O)O)C(=O)O)C(=O)O)C(=O)N[C@@H](CC(N)=O)C(=O)N[C@@H]([C@@H](C)O)C(=O)N[C@@H](C)C(=O)N[C@@H]([C@@H](C)O)C(=O)N1)[C@@H](C)O)C(=O)N1CCC[C@H]1C(=O)N[C@@H](CO)C(=O)N[C@@H](CO)C(=O)N[C@H](C(=O)N[C@@H](CC(N)=O)C(=O)N[C@H](C(=O)NCC(=O)N[C@@H](CCCNC(=N)N)C(=O)N[C@@H](CCC(=O)O)C(=O)N[C@H](C(=O)N[C@@H](Cc1ccc(O)cc1)C(N)=O)[C@@H](C)O)C(C)C)[C@@H](C)O
B3: N^ε1-[(4S)-4-carboxy-4-[[(4S)-4-carboxy-4-(19-carboxynonadecanoylamino)butanoyl]amino]butanoyl]-[Glu14,Arg17,Pro21,Pro27,Arg34]-h-amylin (peptide)
peptide: K([γGlu-γGlu-C20 diacid])CNTATCATQRLAEFLRHSSPNFGAIPSSTNVGRNTY-NH2
modifications: disulfide 2-7; N-terminus assumed
SMILES: CC[C@H](C)[C@H](NC(=O)[C@H](C)NC(=O)CNC(=O)[C@H](Cc1ccccc1)NC(=O)[C@H](CC(N)=O)NC(=O)[C@@H]1CCCN1C(=O)[C@H](CO)NC(=O)[C@H](CO)NC(=O)[C@H](Cc1c[nH]cn1)NC(=O)[C@H](CCCNC(=N)N)NC(=O)[C@H](CC(C)C)NC(=O)[C@H](Cc1ccccc1)NC(=O)[C@H](CCC(=O)O)NC(=O)[C@H](C)NC(=O)[C@H](CC(C)C)NC(=O)[C@H](CCCNC(=N)N)NC(=O)[C@H](CCC(N)=O)NC(=O)[C@@H](NC(=O)[C@H](C)NC(=O)[C@@H]1CSSC[C@H](NC(=O)[C@@H](N)CCCCNC(=O)CC[C@H](NC(=O)CC[C@H](NC(=O)CCCCCCCCCCCCCCCCCCC(=O)O)C(=O)O)C(=O)O)C(=O)N[C@@H](CC(N)=O)C(=O)N[C@@H]([C@@H](C)O)C(=O)N[C@@H](C)C(=O)N[C@@H]([C@@H](C)O)C(=O)N1)[C@@H](C)O)C(=O)N1CCC[C@H]1C(=O)N[C@@H](CO)C(=O)N[C@@H](CO)C(=O)N[C@H](C(=O)N[C@@H](CC(N)=O)C(=O)N[C@H](C(=O)NCC(=O)N[C@@H](CCCNC(=N)N)C(=O)N[C@@H](CC(N)=O)C(=O)N[C@H](C(=O)N[C@@H](Cc1ccc(O)cc1)C(N)=O)[C@@H](C)O)C(C)C)[C@@H](C)O
notes: also called compound 88
B4: N^ε1-[(4S)-4-carboxy-4-[[(4S)-4-carboxy-4-(19-carboxynonadecanoylamino)butanoyl]amino]butanoyl]-[Glu14,Arg17,Pro21,Pro27,Arg35]-h-amylin (peptide)
peptide: K([γGlu-γGlu-C20 diacid])CNTATCATQRLAEFLRHSSPNFGAIPSSTNVGSRTY-NH2
modifications: disulfide 2-7; N-terminus assumed
SMILES: CC[C@H](C)[C@H](NC(=O)[C@H](C)NC(=O)CNC(=O)[C@H](Cc1ccccc1)NC(=O)[C@H](CC(N)=O)NC(=O)[C@@H]1CCCN1C(=O)[C@H](CO)NC(=O)[C@H](CO)NC(=O)[C@H](Cc1c[nH]cn1)NC(=O)[C@H](CCCNC(=N)N)NC(=O)[C@H](CC(C)C)NC(=O)[C@H](Cc1ccccc1)NC(=O)[C@H](CCC(=O)O)NC(=O)[C@H](C)NC(=O)[C@H](CC(C)C)NC(=O)[C@H](CCCNC(=N)N)NC(=O)[C@H](CCC(N)=O)NC(=O)[C@@H](NC(=O)[C@H](C)NC(=O)[C@@H]1CSSC[C@H](NC(=O)[C@@H](N)CCCCNC(=O)CC[C@H](NC(=O)CC[C@H](NC(=O)CCCCCCCCCCCCCCCCCCC(=O)O)C(=O)O)C(=O)O)C(=O)N[C@@H](CC(N)=O)C(=O)N[C@@H]([C@@H](C)O)C(=O)N[C@@H](C)C(=O)N[C@@H]([C@@H](C)O)C(=O)N1)[C@@H](C)O)C(=O)N1CCC[C@H]1C(=O)N[C@@H](CO)C(=O)N[C@@H](CO)C(=O)N[C@H](C(=O)N[C@@H](CC(N)=O)C(=O)N[C@H](C(=O)NCC(=O)N[C@@H](CO)C(=O)N[C@@H](CCCNC(=N)N)C(=O)N[C@H](C(=O)N[C@@H](Cc1ccc(O)cc1)C(N)=O)[C@@H](C)O)C(C)C)[C@@H](C)O
notes: also called compound 89
B5: N^ε1-[(4S)-4-carboxy-4-(19-carboxynonadecanoylamino)butanoyl]-[Glu14,Arg17,Pro21,Pro27,Pro34,Pro37]-h-amylin (peptide)
peptide: K([γGlu-C20 diacid])CNTATCATQRLAEFLRHSSPNFGAIPSSTNVGPNTP-NH2
modifications: disulfide 2-7; N-terminus assumed
SMILES: CC[C@H](C)[C@H](NC(=O)[C@H](C)NC(=O)CNC(=O)[C@H](Cc1ccccc1)NC(=O)[C@H](CC(N)=O)NC(=O)[C@@H]1CCCN1C(=O)[C@H](CO)NC(=O)[C@H](CO)NC(=O)[C@H](Cc1c[nH]cn1)NC(=O)[C@H](CCCNC(=N)N)NC(=O)[C@H](CC(C)C)NC(=O)[C@H](Cc1ccccc1)NC(=O)[C@H](CCC(=O)O)NC(=O)[C@H](C)NC(=O)[C@H](CC(C)C)NC(=O)[C@H](CCCNC(=N)N)NC(=O)[C@H](CCC(N)=O)NC(=O)[C@@H](NC(=O)[C@H](C)NC(=O)[C@@H]1CSSC[C@H](NC(=O)[C@@H](N)CCCCNC(=O)CC[C@H](NC(=O)CCCCCCCCCCCCCCCCCCC(=O)O)C(=O)O)C(=O)N[C@@H](CC(N)=O)C(=O)N[C@@H]([C@@H](C)O)C(=O)N[C@@H](C)C(=O)N[C@@H]([C@@H](C)O)C(=O)N1)[C@@H](C)O)C(=O)N1CCC[C@H]1C(=O)N[C@@H](CO)C(=O)N[C@@H](CO)C(=O)N[C@H](C(=O)N[C@@H](CC(N)=O)C(=O)N[C@H](C(=O)NCC(=O)N1CCC[C@H]1C(=O)N[C@@H](CC(N)=O)C(=O)N[C@H](C(=O)N1CCC[C@H]1C(N)=O)[C@@H](C)O)C(C)C)[C@@H](C)O
B6: N^ε1-[(4S)-4-carboxy-4-(19-carboxynonadecanoylamino)butanoyl]-[Glu14,Arg17,Pro21,Pro27,Pro34,His35]-h-amylin (peptide)
peptide: K([γGlu-C20 diacid])CNTATCATQRLAEFLRHSSPNFGAIPSSTNVGPHTY-NH2
modifications: disulfide 2-7

Biological target: T1, human calcitonin receptor (human, UniProt P30988 25-474)
T1 sequence (looked up): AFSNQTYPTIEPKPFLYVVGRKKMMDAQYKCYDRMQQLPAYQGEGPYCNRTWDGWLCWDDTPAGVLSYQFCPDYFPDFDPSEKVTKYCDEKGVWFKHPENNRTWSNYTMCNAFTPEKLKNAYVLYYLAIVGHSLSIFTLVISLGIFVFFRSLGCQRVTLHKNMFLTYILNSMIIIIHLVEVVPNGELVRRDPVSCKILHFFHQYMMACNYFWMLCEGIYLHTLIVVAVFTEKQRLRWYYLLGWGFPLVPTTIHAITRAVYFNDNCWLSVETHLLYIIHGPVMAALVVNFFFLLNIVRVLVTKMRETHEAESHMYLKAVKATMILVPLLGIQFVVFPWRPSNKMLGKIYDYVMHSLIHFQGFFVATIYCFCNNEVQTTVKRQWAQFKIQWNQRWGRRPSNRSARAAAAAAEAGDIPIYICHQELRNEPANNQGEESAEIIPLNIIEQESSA
Test: cell-based or functional assay

hCTR funct. EC50 [nM]	Binder
0.841	B1
7.43	B2
6.55	B3
11.2	B4
0.09	B5
1.45	B6

Biological target: T2, human amylin 3(a) receptor (human calcitonin receptor plus RAMP-3) (human, UniProt P30988 25-474; O60896 24-148, limits assumed)
T2 sequence (looked up) 1: T1 sequence (looked up)
T2 sequence (looked up) 2: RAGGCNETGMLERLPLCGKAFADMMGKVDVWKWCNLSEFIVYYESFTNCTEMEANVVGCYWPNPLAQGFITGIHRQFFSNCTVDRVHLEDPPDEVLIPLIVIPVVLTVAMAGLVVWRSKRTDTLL
Test: cell-based or functional assay

Ratio hCT/hAmylin funct.	hAmylin-R funct. EC50 [nM]	Binder
5.2	0.161	B1
–	0.703	B2
8.5	0.773	B3
27.8	0.404	B4
0.9	0.105	B5
–	0.101	B6

Biological target: T2, human amylin 3(a) receptor (human …)
Test: SPA competition binding, displacement of 125I-rat amylin from membranes of Amylin 3(a)/CRE-luc BHK cells (Assay V)
Procedure, shortened: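 SPA beads with BHK Amylin 3(a)/CRE-luc cell membranes (35 ng/μL final) in 50 mM Hepes pH 7.4, 1 mM CaCl2, 5 mM MgCl₂, 0.1% OA, 0.02% Tween20.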

IC50 [nM]	Binder
0.14	B1
0.957	B2
0.75	B3
1.16	B4
0.214	B5
0.179	B6
